According to patent US20230174608A1 (published 2023):
Changes are numbered by the printed parent chain. *1 amine or outer side, *2 acyl side, *3 side chain or, on linkers, in order; H or OH if unused. Where no end group is shown, it is not given here. Side-chain parts run from the residue outwards. [ ]: non-standard residue; d: D form. The star is where a group is joined. C18 diacid = O=C(O)CCCCCCCCCCCCCCCCC(=O)*; γGlu = O=C(O)[C@H](CCC(=O)[*:2])N[*:1]; AEEA = NCCOCCOCC(=O)O; Aib = CC(C)(N)C(=O)O

B1: dgc007 (peptide)
peptide: HXQGTFTSDYSKYLDERAAKEFIAWLESGG
HELM: PEPTIDE1{H.[Aib].Q.G.T.F.T.S.D.Y.S.K.Y.L.D.E.R.A.A.K.E.F.I.A.W.L.E.S.G.G.[am]}|PEPTIDE2{[CCCCCCCCCCCCCCCC(=O)[*:2]].[gGlu]}$PEPTIDE1,PEPTIDE2,20:R3-2:R2$$$V2.0; N-terminus assumed
SMILES: CCCCCCCCCCCCCCCC(=O)N[C@@H](CCC(=O)NCCCC[C@H](NC(=O)[C@H](C)NC(=O)[C@H](C)NC(=O)[C@H](CCCNC(=N)N)NC(=O)[C@H](CCC(=O)O)NC(=O)[C@H](CC(=O)O)NC(=O)[C@H](CC(C)C)NC(=O)[C@H](Cc1ccc(O)cc1)NC(=O)[C@H](CCCCN)NC(=O)[C@H](CO)NC(=O)[C@H](Cc1ccc(O)cc1)NC(=O)[C@H](CC(=O)O)NC(=O)[C@H](CO)NC(=O)[C@@H](NC(=O)[C@H](Cc1ccccc1)NC(=O)[C@@H](NC(=O)CNC(=O)[C@H](CCC(N)=O)NC(=O)C(C)(C)NC(=O)[C@@H](N)Cc1c[nH]cn1)[C@@H](C)O)[C@@H](C)O)C(=O)N[C@@H](CCC(=O)O)C(=O)N[C@@H](Cc1ccccc1)C(=O)N[C@H](C(=O)N[C@@H](C)C(=O)N[C@@H](Cc1c[nH]c2ccccc12)C(=O)N[C@@H](CC(C)C)C(=O)N[C@@H](CCC(=O)O)C(=O)N[C@@H](CO)C(=O)NCC(=O)NCC(N)=O)[C@@H](C)CC)C(=O)O
B2: dgc010 (peptide)
peptide: B1 peptide with D15E
HELM: PEPTIDE1{H.[Aib].Q.G.T.F.T.S.D.Y.S.K.Y.L.E.E.R.A.A.K.E.F.I.A.W.L.E.S.G.G.[am]}|PEPTIDE2{[CCCCCCCCCCCCCCCC(=O)[*:2]].[gGlu].[gGlu]}$PEPTIDE1,PEPTIDE2,20:R3-3:R2$$$V2.0; N-terminus assumed
SMILES: CCCCCCCCCCCCCCCC(=O)N[C@@H](CCC(=O)N[C@@H](CCC(=O)NCCCC[C@H](NC(=O)[C@H](C)NC(=O)[C@H](C)NC(=O)[C@H](CCCNC(=N)N)NC(=O)[C@H](CCC(=O)O)NC(=O)[C@H](CCC(=O)O)NC(=O)[C@H](CC(C)C)NC(=O)[C@H](Cc1ccc(O)cc1)NC(=O)[C@H](CCCCN)NC(=O)[C@H](CO)NC(=O)[C@H](Cc1ccc(O)cc1)NC(=O)[C@H](CC(=O)O)NC(=O)[C@H](CO)NC(=O)[C@@H](NC(=O)[C@H](Cc1ccccc1)NC(=O)[C@@H](NC(=O)CNC(=O)[C@H](CCC(N)=O)NC(=O)C(C)(C)NC(=O)[C@@H](N)Cc1c[nH]cn1)[C@@H](C)O)[C@@H](C)O)C(=O)N[C@@H](CCC(=O)O)C(=O)N[C@@H](Cc1ccccc1)C(=O)N[C@H](C(=O)N[C@@H](C)C(=O)N[C@@H](Cc1c[nH]c2ccccc12)C(=O)N[C@@H](CC(C)C)C(=O)N[C@@H](CCC(=O)O)C(=O)N[C@@H](CO)C(=O)NCC(=O)NCC(N)=O)[C@@H](C)CC)C(=O)O)C(=O)O
B3: dgc005 (peptide)
peptide: B1 peptide with D15E, S28A
HELM: PEPTIDE1{H.[Aib].Q.G.T.F.T.S.D.Y.S.K.Y.L.E.E.R.A.A.K.E.F.I.A.W.L.E.A.G.G.[am]}|PEPTIDE2{[CCCCCCCCCCCCCCCC(=O)[*:2]].[gGlu].[gGlu]}$PEPTIDE1,PEPTIDE2,20:R3-3:R2$$$V2.0; N-terminus assumed
SMILES: CCCCCCCCCCCCCCCC(=O)N[C@@H](CCC(=O)N[C@@H](CCC(=O)NCCCC[C@H](NC(=O)[C@H](C)NC(=O)[C@H](C)NC(=O)[C@H](CCCNC(=N)N)NC(=O)[C@H](CCC(=O)O)NC(=O)[C@H](CCC(=O)O)NC(=O)[C@H](CC(C)C)NC(=O)[C@H](Cc1ccc(O)cc1)NC(=O)[C@H](CCCCN)NC(=O)[C@H](CO)NC(=O)[C@H](Cc1ccc(O)cc1)NC(=O)[C@H](CC(=O)O)NC(=O)[C@H](CO)NC(=O)[C@@H](NC(=O)[C@H](Cc1ccccc1)NC(=O)[C@@H](NC(=O)CNC(=O)[C@H](CCC(N)=O)NC(=O)C(C)(C)NC(=O)[C@@H](N)Cc1c[nH]cn1)[C@@H](C)O)[C@@H](C)O)C(=O)N[C@@H](CCC(=O)O)C(=O)N[C@@H](Cc1ccccc1)C(=O)N[C@H](C(=O)N[C@@H](C)C(=O)N[C@@H](Cc1c[nH]c2ccccc12)C(=O)N[C@@H](CC(C)C)C(=O)N[C@@H](CCC(=O)O)C(=O)N[C@@H](C)C(=O)NCC(=O)NCC(N)=O)[C@@H](C)CC)C(=O)O)C(=O)O
B4: dgc012 (peptide)
peptide: H[dS]QGTFTSDYSKYLEERAAK([AEEA-AEEA-γGlu-C18 diacid])EFVAWLEGG-NH2
modifications: N-terminus assumed
SMILES: CC(C)C[C@H](NC(=O)[C@H](Cc1c[nH]c2ccccc12)NC(=O)[C@H](C)NC(=O)[C@@H](NC(=O)[C@H](Cc1ccccc1)NC(=O)[C@H](CCC(=O)O)NC(=O)[C@H](CCCCNC(=O)COCCOCCNC(=O)COCCOCCNC(=O)CC[C@H](NC(=O)CCCCCCCCCCCCCCCCC(=O)O)C(=O)O)NC(=O)[C@H](C)NC(=O)[C@H](C)NC(=O)[C@H](CCCNC(=N)N)NC(=O)[C@H](CCC(=O)O)NC(=O)[C@H](CCC(=O)O)NC(=O)[C@H](CC(C)C)NC(=O)[C@H](Cc1ccc(O)cc1)NC(=O)[C@H](CCCCN)NC(=O)[C@H](CO)NC(=O)[C@H](Cc1ccc(O)cc1)NC(=O)[C@H](CC(=O)O)NC(=O)[C@H](CO)NC(=O)[C@@H](NC(=O)[C@H](Cc1ccccc1)NC(=O)[C@@H](NC(=O)CNC(=O)[C@H](CCC(N)=O)NC(=O)[C@@H](CO)NC(=O)[C@@H](N)Cc1c[nH]cn1)[C@@H](C)O)[C@@H](C)O)C(C)C)C(=O)N[C@@H](CCC(=O)O)C(=O)NCC(=O)NCC(N)=O
B5: dgc008 (peptide)
peptide: B1 peptide with D15E
HELM: PEPTIDE1{H.[Aib].Q.G.T.F.T.S.D.Y.S.K.Y.L.E.E.R.A.A.K.E.F.I.A.W.L.E.S.G.G.[am]}|PEPTIDE2{[CCCCCCCCCCCCCCCC(=O)[*:2]].[gGlu]}$PEPTIDE1,PEPTIDE2,20:R3-2:R2$$$V2.0; N-terminus assumed
SMILES: CCCCCCCCCCCCCCCC(=O)N[C@@H](CCC(=O)NCCCC[C@H](NC(=O)[C@H](C)NC(=O)[C@H](C)NC(=O)[C@H](CCCNC(=N)N)NC(=O)[C@H](CCC(=O)O)NC(=O)[C@H](CCC(=O)O)NC(=O)[C@H](CC(C)C)NC(=O)[C@H](Cc1ccc(O)cc1)NC(=O)[C@H](CCCCN)NC(=O)[C@H](CO)NC(=O)[C@H](Cc1ccc(O)cc1)NC(=O)[C@H](CC(=O)O)NC(=O)[C@H](CO)NC(=O)[C@@H](NC(=O)[C@H](Cc1ccccc1)NC(=O)[C@@H](NC(=O)CNC(=O)[C@H](CCC(N)=O)NC(=O)C(C)(C)NC(=O)[C@@H](N)Cc1c[nH]cn1)[C@@H](C)O)[C@@H](C)O)C(=O)N[C@@H](CCC(=O)O)C(=O)N[C@@H](Cc1ccccc1)C(=O)N[C@H](C(=O)N[C@@H](C)C(=O)N[C@@H](Cc1c[nH]c2ccccc12)C(=O)N[C@@H](CC(C)C)C(=O)N[C@@H](CCC(=O)O)C(=O)N[C@@H](CO)C(=O)NCC(=O)NCC(N)=O)[C@@H](C)CC)C(=O)O
B6: dgc004 (peptide)
peptide: B1 peptide with D15E, S28A
HELM: PEPTIDE1{H.[Aib].Q.G.T.F.T.S.D.Y.S.K.Y.L.E.E.R.A.A.K.E.F.I.A.W.L.E.A.G.G.[am]}|PEPTIDE2{[CCCCCCCCCCCCCCCC(=O)[*:2]].[gGlu]}$PEPTIDE1,PEPTIDE2,20:R3-2:R2$$$V2.0; N-terminus assumed
SMILES: CCCCCCCCCCCCCCCC(=O)N[C@@H](CCC(=O)NCCCC[C@H](NC(=O)[C@H](C)NC(=O)[C@H](C)NC(=O)[C@H](CCCNC(=N)N)NC(=O)[C@H](CCC(=O)O)NC(=O)[C@H](CCC(=O)O)NC(=O)[C@H](CC(C)C)NC(=O)[C@H](Cc1ccc(O)cc1)NC(=O)[C@H](CCCCN)NC(=O)[C@H](CO)NC(=O)[C@H](Cc1ccc(O)cc1)NC(=O)[C@H](CC(=O)O)NC(=O)[C@H](CO)NC(=O)[C@@H](NC(=O)[C@H](Cc1ccccc1)NC(=O)[C@@H](NC(=O)CNC(=O)[C@H](CCC(N)=O)NC(=O)C(C)(C)NC(=O)[C@@H](N)Cc1c[nH]cn1)[C@@H](C)O)[C@@H](C)O)C(=O)N[C@@H](CCC(=O)O)C(=O)N[C@@H](Cc1ccccc1)C(=O)N[C@H](C(=O)N[C@@H](C)C(=O)N[C@@H](Cc1c[nH]c2ccccc12)C(=O)N[C@@H](CC(C)C)C(=O)N[C@@H](CCC(=O)O)C(=O)N[C@@H](C)C(=O)NCC(=O)NCC(N)=O)[C@@H](C)CC)C(=O)O

Target: Glucagon receptor (GCGR), stably expressed on HEK293 cells
Experiment: cell-based or functional assay

GCGR (nM EC50), receptor-mediated cAMP production in HEK293 cells [nM]	Binder
0.971	B1
0.614	B2
8.22	H[Aib]QGTFTSDYSKYLEERAAKEFIAWLESGG-NH2 (not fully specified (residue 20); printed as HAibQGTFTSDYSKYLEERAAK*EFIAWLESGG) [dgc009]
4.13	H[Aib]QGTFTSDYSKYLEERAAKEFIAWLEAGG-NH2 (not fully specified (residue 20)) [dgc011]
1.16	B3
6.41	H[Aib]QGTFTSDYSKYLEERAAKEFIAWLEAGG-NH2 (not fully specified (residue 20)) [dgc006]
2.17	B4
2.03	B5
5.84	B6

Target: GLP-1 receptor (GLP-1R), stably expressed on HEK293 cells
Experiment: cell-based or functional assay

GLP-1R (nM EC50), receptor-mediated cAMP production in HEK293 cells [nM]	Binder
0.28	B1
0.537	B2
0.092	H[Aib]QGTFTSDYSKYLEERAAKEFIAWLESGG-NH2 (not fully specified (residue 20); printed as HAibQGTFTSDYSKYLEERAAK*EFIAWLESGG) [dgc009]
0.955	H[Aib]QGTFTSDYSKYLEERAAKEFIAWLEAGG-NH2 (not fully specified (residue 20)) [dgc011]
0.484	B3
0.472	H[Aib]QGTFTSDYSKYLEERAAKEFIAWLEAGG-NH2 (not fully specified (residue 20)) [dgc006]
0.044	B4
0.742	B5
0.113	B6
